Reference: the supplement of paper PMC9732359
± gives the uncertainty stated by the source.

Experiment: protein stability index of a GFP-peptide fusion (yeast GPS) (PSI 1-4); higher = more stable; sorted into four equal gates, so the index is relative within each strain
Method in brief: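 The protein stability index of a peptide was calculated by multiplying its read frequency in each gate by that gate's number and adding the products. The peptides were tiled 17-residue stretches of yeast proteins, fused downstream of GFP on a Cherry-expressing plasmid and carried in yeast as a pooled library. Mid-log cultures in leucine-free medium were sorted into four equal gates by GFP/Cherry ratio, and each gate's plasmids were PCR-amplified and Illumina-sequenced.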

Sequence | protein stability index (doa10∆) | protein stability index (pdr5∆) | protein stability index (san1∆) | protein stability index (ubr1∆)
DGLEKAAFNGVTFKDKY [FAS2] | 1.94 ± 0.083 | 1.57 ± 0.096 | 1.85 ± 0.14 | 2.09 ± 0.12
LIPFIVKQVLLSVEIGV [NUT1] | 1.57 ± 0.031 | 1.6 ± 0.031 | 1.56 ± 0.059 | 1.74 ± 0.036
ASVTKEILGTAQSVGCR [RPL12A] | 1.35 ± 0.087 | 1.51 ± 0.044 | 1.35 ± 0.082 | 1.61 ± 0.082
TLVGGGAKITPEMIKRS [RRP43] | – | 3.29 ± 0.29 | 2.74 ± 0.22 | –
AGQNATVAVMSYSGYDI [RET1] | 1.32 ± 0.039 | 1.38 ± 0.045 | 1.33 ± 0.086 | 1.66 ± 0.036
ETYGSMEMSEKIQFILE [RPN5] | 2.41 ± 0.12 | 2.94 ± 0.082 | 2.53 ± 0.079 | 2.77 ± 0.079
DKLICSIDPPGCVDIDD [DIS3] | 3.33 ± 0.068 | 3.11 ± 0.062 | 2.78 ± 0.068 | 3.14 ± 0.091
IQSQVFESLYNSNDSVF [BRR2] | 2.04 ± 0.053 | 2.31 ± 0.057 | 1.59 ± 0.097 | 2.09 ± 0.046
ESVPIYSIDEFFLQRKL [BRR2] | 3.44 ± 0.13 | 3.21 ± 0.062 | 2.96 ± 0.12 | 3.33 ± 0.057
RSKSSHKNERRVLEIQT [SKI6] | 3.22 ± 0.097 | 3.35 ± 0.087 | 3.23 ± 0.084 | 3.37 ± 0.061
NNNNAPIIIYGTENTER [YOR098C/NUP1] | 2.62 ± 0.054 | 2.69 ± 0.06 | 2.83 ± 0.045 | 2.74 ± 0.039
DEDESQNIAQSSNQSAP [HRT1] | 2.99 ± 0.07 | 3.15 ± 0.074 | 3.14 ± 0.051 | 3.19 ± 0.043
LRSRSFKSTESNISDEK [YMR129W/POM152] | – | – | 2.88 ± 0.27 | –
YGESDIHFREHQSELII [YMR129W/POM152] | 2.31 ± 0.089 | 2.89 ± 0.096 | 2.21 ± 0.13 | 2.49 ± 0.077
NKLMEKDFQVNKEIKPY [SIR4] | 3.35 ± 0.059 | 3.38 ± 0.054 | 3.12 ± 0.059 | 3.28 ± 0.047
LLFFNFSHSLTTILSFS [NUT1] | 1.41 ± 0.046 | 1.41 ± 0.034 | 1.46 ± 0.059 | 1.37 ± 0.033
NDIKLFVDDTNVYRVTV [PRP8] | 2.58 ± 0.084 | 2.63 ± 0.091 | 2.43 ± 0.072 | 2.57 ± 0.053
ANKEKRAIILERNAAYQ [RPL7A] | 1.2 ± 0.072 | 1.38 ± 0.081 | 1.14 ± 0.11 | 1.32 ± 0.2
QNPENLLSEKILQYFEK [SIR3] | 2.83 ± 0.079 | 2.81 ± 0.086 | 2.8 ± 0.054 | 3.2 ± 0.072
SSVVSEPKKPSFTFASS [YOR098C/NUP1] | 3 ± 0.049 | 3.12 ± 0.038 | 3.01 ± 0.044 | 2.92 ± 0.034
DVNLDVRIHSIQVLTEA [IRR1] | 2.19 ± 0.15 | 2.84 ± 0.2 | 2.78 ± 0.18 | 2.84 ± 0.13
KNSSQLLNEWSHNVDEL [RPN5] | 2.75 ± 0.057 | 2.81 ± 0.05 | 2.9 ± 0.045 | 2.64 ± 0.049
DSIASVLSPDSNIMSDS [GAL11] | 2.74 ± 0.1 | 2.98 ± 0.073 | 3.03 ± 0.064 | 3.09 ± 0.099
YIKSMDLISKKTKTSLL [RPR2] | 2.96 ± 0.081 | 2.66 ± 0.079 | 2.78 ± 0.075 | 2.79 ± 0.051
KEHAPYTDELEEDVYLD [FAS2] | – | 3.48 ± 0.27 | – | 3.04 ± 0.26
LESWWLVLGEVSKKELY [BRR2] | 1.68 ± 0.16 | 1.39 ± 0.14 | 1.11 ± 0.17 | –
NRQICLVQKTVQESGNI [GRR1] | 3.44 ± 0.16 | 3.21 ± 0.077 | 2.81 ± 0.064 | 2.69 ± 0.1

Sequence | protein stability index (doa10∆) | protein stability index (pdr5∆) | protein stability index (san1∆) | protein stability index (ubr1∆)
IVVATEHNPSAHTASVG [COR1] | 2.7 ± 0.07 | 2.46 ± 0.088 | 2.27 ± 0.06 | 1.77 ± 0.037
KEPVALIETVRQMKDVN [RPN2] | 3.36 ± 0.059 | 3.41 ± 0.067 | 3.15 ± 0.051 | 3.31 ± 0.041
QTLLQRSEDPAGLGKTN [YGR119C/NUP57] | 3.31 ± 0.084 | 3.12 ± 0.11 | 3.27 ± 0.078 | 3.39 ± 0.091
NKTLTLDLKECYQFAEY [ARP7] | 1.96 ± 0.089 | 2.3 ± 0.072 | 1.9 ± 0.17 | 2.69 ± 0.1
ENVGTRLLPINVNKKAL [MED11] | 2.87 ± 0.18 | 2.65 ± 0.13 | 2.89 ± 0.094 | 2.98 ± 0.22
TTSLNPIQSKVFHAAFE [BRR2] | 2.65 ± 0.062 | 2.56 ± 0.071 | 2.08 ± 0.11 | 2.85 ± 0.052
NIKSNDFSIRKTCAKSV [ECM29] | 2.55 ± 0.087 | 2.24 ± 0.1 | 2.27 ± 0.18 | 2.83 ± 0.15
ALAEGHGDAAVLLVEKY [NAS6] | – | 3.12 ± 0.1 | 3.04 ± 0.09 | 2.6 ± 0.11
DETKGFDDNDSGNNYND [MED2] | 3.1 ± 0.055 | 3.07 ± 0.058 | 3.13 ± 0.053 | 3.1 ± 0.048
HIHKHVKDEAFDDLLKP [RET1] | 3.12 ± 0.11 | 3.4 ± 0.12 | 3.25 ± 0.073 | 3.11 ± 0.15
NFLLPDIFGDSELFDEW [ISW2] | 2.25 ± 0.059 | 2.46 ± 0.076 | 2.79 ± 0.07 | 2.72 ± 0.059
SFSFLNRADGTGEAQVD [YLR335W/NUP2] | – | 3.39 ± 0.23 | – | 2.78 ± 0.29
EVSGENVVEADLKRFVD [QCR2] | 3.31 ± 0.19 | 3.25 ± 0.13 | 3.36 ± 0.058 | 3.66 ± 0.067
QEEFVQFLQLDNDGFSF [ECM29] | 1.9 ± 0.087 | 3.13 ± 0.12 | 1.93 ± 0.11 | 2.41 ± 0.11
VYLSLLDKDSSQSSAAA [RPN6] | 3 ± 0.16 | 3.21 ± 0.069 | – | 3.03 ± 0.071
RVEKIPEIPLVVSTDLE [RPL4A] | – | 2.93 ± 0.3 | – | 2.77 ± 0.22
ENGTLLVPPPRTIANQD [RPR2] | 3.01 ± 0.054 | 3.05 ± 0.052 | 2.81 ± 0.05 | 2.99 ± 0.036
NYYYLFDKKSFFNGKAL [PRP8] | 2.55 ± 0.046 | 2.16 ± 0.043 | 2.91 ± 0.055 | 2.38 ± 0.037
FNYNIFMHDPSVFYNIA [SIR2] | 1.46 ± 0.055 | 1.69 ± 0.037 | 1.5 ± 0.073 | 1.76 ± 0.048
IHGELKTYKEGINKNEE [SMC1] | 2.94 ± 0.075 | 3.09 ± 0.051 | 2.87 ± 0.055 | 3.01 ± 0.046
LSIAIVGKDTPFTIYDG [PRE5] | 2.87 ± 0.066 | 2.94 ± 0.054 | 2.78 ± 0.08 | 3.07 ± 0.047
THTNLERDEQKRAEKKA [SNF2] | 3.35 ± 0.099 | 3.45 ± 0.11 | 2.77 ± 0.12 | 3.23 ± 0.059
YKVEHPFFARFKLRIQT [RPB11] | 2 ± 0.097 | 1.28 ± 0.057 | 1.37 ± 0.11 | 1.31 ± 0.16
LFLRGDSVIVVLKTPVE [SMD2] | 2.63 ± 0.12 | 2.42 ± 0.093 | 2.78 ± 0.083 | 2.38 ± 0.14
DQHVINILWAIYNSASK [YCS4] | 1.69 ± 0.044 | 2.22 ± 0.048 | 1.63 ± 0.077 | 1.59 ± 0.041
TPVSHNDDLYGKVTDVR [RPL1A] | 3.04 ± 0.091 | 3.04 ± 0.096 | 2.81 ± 0.067 | 3.12 ± 0.084
